Data reported in patent publication CN116262788A (TAIZE HUIKANG BIOMEDICAL CO LTD; BEIJING MIANYI FANGZHOU …, dated 2023).
One block for each binder: values may come before it.

Columns and labels:
[1] = biological target: T1, 人CD27蛋白 (Cat: 10039-H03H, Sino Biological Inc.) (human, UniProt P26842 21-192); assay: SPR (Reichert4), human CD27 protein on chip, antibody as analyte, curve 1.25e-8
T1 construct: Bought protein coated on the SPR chip
T1 sequence (looked up): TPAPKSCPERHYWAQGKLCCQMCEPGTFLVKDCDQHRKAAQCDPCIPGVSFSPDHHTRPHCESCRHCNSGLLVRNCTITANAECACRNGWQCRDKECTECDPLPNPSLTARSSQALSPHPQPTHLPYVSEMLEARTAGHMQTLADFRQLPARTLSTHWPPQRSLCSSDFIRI

[2] = biological target: T1, 人CD27蛋白 (Cat: 10039-H03H, Sino …); assay: SPR (Reichert4), human CD27 protein on chip, antibody as analyte, curve 5.00e-8
[3] = biological target: 人CD27 (稳定表达人CD27的细胞系 HEK::CD27 细胞) (human) (UniProt P26842); assay: flow cytometry on cells expressing human CD27
[4] = biological target: T1, 人CD27蛋白 (Cat: 10039-H03H, Sino …); assay: SPR (Reichert4), human CD27 protein on chip, antibody as analyte, curve 2.50e-8
[5] = biological target: T1, 人CD27蛋白 (Cat: 10039-H03H, Sino …); assay: SPR (Reichert4), human CD27 protein on chip, antibody as analyte, curve printed 625e-9
[6] = biological target: T2, 人CD27 (稳定表达人CD27的细胞系 HEK::CD27 细胞) (human, UniProt P26842 20-260); assay: flow cytometry on HEK::CD27 cells, 10 ng and 100 ng antibody
T2 construct: whole, on cells; also called hCD27; 表达hCD27的细胞
T2 sequence (looked up): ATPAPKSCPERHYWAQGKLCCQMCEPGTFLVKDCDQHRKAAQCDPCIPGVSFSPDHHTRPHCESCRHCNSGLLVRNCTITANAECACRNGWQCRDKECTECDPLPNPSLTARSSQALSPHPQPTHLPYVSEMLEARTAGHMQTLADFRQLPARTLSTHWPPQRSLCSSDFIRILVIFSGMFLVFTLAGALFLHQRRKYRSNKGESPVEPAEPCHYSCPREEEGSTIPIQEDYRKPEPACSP

[7] = biological target: T1, 人CD27蛋白 (Cat: 10039-H03H, Sino …); assay: SPR (Reichert4), human CD27 protein on chip, antibody as analyte, curve 6.25e-9

B2: 6D8-G98A (人鼠嵌合抗体) (antibody, V domains shown)
VH: QIQLVQSGPELKKPGETVKISCKASGYTFTNYGMNWVKQAPGKGLKWMGWINTNTGEPTYADDFKGRFAFSLETSATTAYLQINNLKNEDTATYFCAREGDAFDSWGQGTTLTVSS
VL: QFVLTQSPAIMSASPGEKVTMTCSATSSVNYMHWYQQKSGTSPKRWIYDTSRLASGVPARFSGSGSGTSYSLTISSMEAEDAATYYCQQWNTNPWTFGGGTKLEIK
binding result [6]: binds

B3: Varlilumab (antibody, V domains shown)
VH: QVQLVESGGGVVQPGRSLRLSCAASGFTFSSYDMHWVRQAPGKGLEWVAVIWYDGSNKYYADSVKGRFTISRDNSKNTLYLQMNSLRAEDTAVYYCARGSGNWGFFDYWGQGTLVTVSS
VL: DIQMTQSPSSLSASVGDRVTITCRASQGISRWLAWYQQKPEKAPKSLIYAASSLQSGVPSRFSGSGSGTDFTLTISSLQPEDFATYYCQQYNTYPRTFGQGTKVEIKR
Kd [1]: 0.00185 nM | koff [1]: 2.14e-07 s⁻¹ | kon [1]: 116000 M⁻¹ s⁻¹ | Kd [2]: 0.00185 nM | koff [2]: 2.14e-07 s⁻¹ | kon [2]: 116000 M⁻¹ s⁻¹ | Kd [4]: 0.00185 nM | koff [4]: 2.14e-07 s⁻¹ | kon [4]: 116000 M⁻¹ s⁻¹ | Kd [7]: 0.00185 nM | koff [7]: 2.14e-07 s⁻¹ | kon [7]: 116000 M⁻¹ s⁻¹

B4: Hu6D8-5 (antibody, human IgG4, V domains shown)
VH: EVQLVQSGAEVKKPGASVKVSCKASGYTFTNYGMNWVRQAPGQGLKWMGWINTNTGEPTYADDFKGRVTMTLDTSISTAYMELSRLRSDDTAVYYCAREGDGFDSWGQGTTVTVSS
VL: QIVLTQSPDFQSVTPKEKVTITCSATSSVNYMHWYQQKPDQSPKRWIYDTSRLASGVPSRFSGSGSGTDYTLTINSLEAEDAATYYCQQWNTNPWTFGGGTKVEIK
binding result [6]: binds

B5: Hu6D8-2 (antibody, human IgG4, V domains shown)
VH: EVQLVQSGAEVKKPGASVKVSCKASGYTFTNYGMNWVRQAPGQGLKWMGWINTNTGEPTYADDFKGRVTMTLDTSISTAYMELSRLRSDDTAVYYCAREGDGFDSWGQGTTVTVSS
VL: EIVLTQSPDFQSVTPKEKVTITCSATSSVNYMHWYQQKPDQSPKRWIYDTSRLASGVPSRFSGSGSGTDYTLTINSLEAEDAATYYCQQWNTNPWTFGGGTKVEIK
binding result [6]: binds

B6: Hu6D8-4 (antibody, human IgG4, V domains shown)
VH: EVQLVQSGAEVKKPGASVKVSCKASGYTFTNYGMNWVRQAPGQGLKWMGWINTNTGEPTYADDFKGRVTMTLDTSISTAYMELSRLRSDDTAVYYCAREGDGFDSWGQGTTVTVSS
VL: QFVLTQSPDFQSVTPKEKVTITCSATSSVNYMHWYQQKPDQSPKRLIYDTSRLASGVPSRFSGSGSGTDYTLTINSLEAEDAATYYCQQWNTNPWTFGGGTKVEIK
binding result [6]: binds

Further lines, results first:

Kd [1]: 0.514 nM | koff [1]: 9.69e-05 s⁻¹ | kon [1]: 188000 M⁻¹ s⁻¹ | Kd [2]: 0.514 nM | koff [2]: 9.69e-05 s⁻¹ | kon [2]: 188000 M⁻¹ s⁻¹ | 结合率 [3]: > 85% | Kd [4]: 0.514 nM | koff [4]: 9.69e-05 s⁻¹ | kon [4]: 188000 M⁻¹ s⁻¹ | Kd [5]: 0.514 nM | koff [5]: 9.69e-05 s⁻¹ | kon [5]: 188000 M⁻¹ s⁻¹
B1: 鼠抗人CD27单克隆抗体6D8 (antibody, V domains shown)
VH: QIQLVQSGPELKKPGETVKISCKASGYTFTNYGMNWVKQAPGKGLKWMGWINTNTGEPTYADDFKGRFAFSLETSATTAYLQINNLKNEDTATYFCAREGDGFDSWGQGTTLTVSS
VL: QFVLTQSPAIMSASPGEKVTMTCSATSSVNYMHWYQQKSGTSPKRWIYDTSRLASGVPARFSGSGSGTSYSLTISSMEAEDAATYYCQQWNTNPWTFGGGTKLEIK
notes: it is not clear whether they are whole chains or variable regions only; also called 6D8抗体

binding result [6]: binds
B7: Hu6D8-12 (antibody, human IgG4, V domains shown)
VH: EVQLVQSGAEVKKPGASVKVSCKASGYTFTNYGMNWVRQAPGQGLKWMGWINTNTGEPTYADDFKGRFTFTLDTSISTAYMELSRLRSDDTAVYYCAREGDGFDSWGQGTTVTVSS
VL: QFVLTQSPDFQSVTPKEKVTITCSATSSVNYMHWYQQKPDQSPKRWIYDTSRLASGVPSRFSGSGSGTDYTLTINSLEAEDAATYYCQQWNTNPWTFGGGTKVEIK

binding result [6]: binds
B8: Hu6D8-1 (antibody, human IgG4, V domains shown)
VH: EVQLVQSGAEVKKPGASVKVSCKASGYTFTNYGMNWVRQAPGQGLKWMGWINTNTGEPTYADDFKGRVTMTLDTSISTAYMELSRLRSDDTAVYYCAREGDGFDSWGQGTTVTVSS
VL: EIVLTQSPDFQSVTPKEKVTITCSATSSVNYMHWYQQKPDQSPKRLIYDTSRLASGVPSRFSGSGSGTDYTLTINSLEAEDAATYYCQQWNTNPWTFGGGTKVEIK

binding result [6]: binds
B9: Hu6D8-3 (antibody, human IgG4, V domains shown)
VH: EVQLVQSGAEVKKPGASVKVSCKASGYTFTNYGMNWVRQAPGQGLKWMGWINTNTGEPTYADDFKGRVTMTLDTSISTAYMELSRLRSDDTAVYYCAREGDGFDSWGQGTTVTVSS
VL: QIVLTQSPDFQSVTPKEKVTITCSATSSVNYMHWYQQKPDQSPKRLIYDTSRLASGVPSRFSGSGSGTDYTLTINSLEAEDAATYYCQQWNTNPWTFGGGTKVEIK

binding result [6]: binds
B10: Hu6D8-6 (antibody, human IgG4, V domains shown)
VH: EVQLVQSGAEVKKPGASVKVSCKASGYTFTNYGMNWVRQAPGQGLKWMGWINTNTGEPTYADDFKGRVTMTLDTSISTAYMELSRLRSDDTAVYYCAREGDGFDSWGQGTTVTVSS
VL: QFVLTQSPDFQSVTPKEKVTITCSATSSVNYMHWYQQKPDQSPKRWIYDTSRLASGVPSRFSGSGSGTDYTLTINSLEAEDAATYYCQQWNTNPWTFGGGTKVEIK
